Data taken from patent publication US20140087995A1 (published 2014).
Each block holds one binder with its values, some of them ahead of it. Numbered stars: 1 amine (or outer) side, 2 acyl side, 3 side chain; on linkers, the order of the positions; unused ones are H or OH. Bridge positions count the residues as written; N and C are the ends. Side chains are listed from the residue outwards. Ends that are not written are not given here. * marks the point of attachment. C20 diacid = O=C(O)CCCCCCCCCCCCCCCCCCC(=O)*; γGlu = O=C(O)[C@H](CCC(=O)[*:2])N[*:1]; AEEA = NCCOCCOCC(=O)O

Key:
[1] = molecular target: T1, rat calcitonin receptor (rat, UniProt P32214 25-516); assay: SPA competition vs 125I-calcitonin, membranes of BHK cells with rat calcitonin receptor (Assay VIII)
T1 construct: whole, on cells; Membranes prepared from transiently transfected BHK tk'ts 13 cells (Assay VIII); also called rCTR; rCT
T1 sequence (looked up): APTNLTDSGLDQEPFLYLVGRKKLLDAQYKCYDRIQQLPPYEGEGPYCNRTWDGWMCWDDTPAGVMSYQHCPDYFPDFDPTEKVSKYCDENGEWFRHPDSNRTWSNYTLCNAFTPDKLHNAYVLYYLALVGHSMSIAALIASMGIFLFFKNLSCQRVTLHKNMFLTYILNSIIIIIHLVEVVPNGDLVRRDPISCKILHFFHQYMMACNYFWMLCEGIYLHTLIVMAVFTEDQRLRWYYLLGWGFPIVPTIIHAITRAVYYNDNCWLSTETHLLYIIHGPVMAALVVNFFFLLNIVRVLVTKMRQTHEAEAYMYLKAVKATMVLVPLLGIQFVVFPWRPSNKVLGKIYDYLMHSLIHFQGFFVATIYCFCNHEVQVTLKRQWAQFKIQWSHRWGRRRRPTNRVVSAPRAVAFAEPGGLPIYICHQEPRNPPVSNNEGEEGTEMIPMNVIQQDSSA

[2] = molecular target: T2, rat amylin receptor (rat calcitonin receptor + rat RAMP 3) (rat, UniProt P32214 25-516; Q9JJ73 23-147); assay: SPA competition vs 125I-rat amylin, membranes of BHK cells with rat calcitonin receptor + rat RAMP3 (Assay VI)
T2 construct: whole, on cells; Membranes prepared from transiently transfected BHK tk'ts 13 cells (Assay VI); also called rAmylin-R; rAmylin
T2 sequence (looked up) 1: T1 sequence (looked up)
T2 sequence (looked up) 2: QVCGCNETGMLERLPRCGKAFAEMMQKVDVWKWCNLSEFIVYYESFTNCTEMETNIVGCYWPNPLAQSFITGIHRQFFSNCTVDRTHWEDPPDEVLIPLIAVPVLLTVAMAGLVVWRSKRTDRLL

[3] = molecular target: T1, rat calcitonin receptor; assay: ratio of binding IC50s: rat calcitonin receptor / rat amylin receptor (reference)
[4] = molecular target: T3, human calcitonin receptor (human, UniProt P30988 25-474); assay: ratio of binding IC50s: human calcitonin receptor / human amylin receptor (reference)
T3 construct: whole, on cells; Membranes prepared from a stably transfected BHK cell line (Assay VII); also called hCTR; hCT
T3 sequence (looked up): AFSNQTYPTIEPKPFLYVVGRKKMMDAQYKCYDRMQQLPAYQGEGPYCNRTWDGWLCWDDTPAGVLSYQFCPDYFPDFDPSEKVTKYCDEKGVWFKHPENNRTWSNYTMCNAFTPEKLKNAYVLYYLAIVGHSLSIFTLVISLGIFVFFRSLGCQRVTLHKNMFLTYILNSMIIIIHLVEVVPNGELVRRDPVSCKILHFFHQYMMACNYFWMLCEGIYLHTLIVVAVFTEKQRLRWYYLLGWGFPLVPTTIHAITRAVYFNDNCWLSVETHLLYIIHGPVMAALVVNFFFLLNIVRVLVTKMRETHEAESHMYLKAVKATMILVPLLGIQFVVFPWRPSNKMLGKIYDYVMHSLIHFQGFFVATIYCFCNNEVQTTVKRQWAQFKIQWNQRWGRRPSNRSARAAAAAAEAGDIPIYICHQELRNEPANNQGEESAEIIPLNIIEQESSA
Procedure, shortened: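 Competition binding by SPA with cell membranes (35 ng/μL) and SPA beads in 50 mM Hepes pH 7.4 with 1 mM CaCl2, 5 mM MgCl2, 0.1% OA and 0.02% Tween20. Incubated 120 min at 25 °C with shaking, then counted.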

IC50 [1]: 196 nM
IC50 [2]: 2.31 nM
Ratio rCT/rAmylin binding [3]: 84.9
Ratio hCT/hAmylin binding [4]: 46.5
B1: N^ε1-[(4S)-4-carboxy-4-[[(4S)-4-carboxy-4-(19-carboxynonadecanoylamino)butanoyl]amino]butanoyl]-[Glu14,Arg17,Pro21,Pro27,Arg34]-h-amylin (peptide)
peptide: K([γGlu-γGlu-C20 diacid])CNTATCATQRLAEFLRHSSPNFGAIPSSTNVGRNTY-NH2
modifications: disulfide 2-7; N-terminus assumed
SMILES: CC[C@H](C)[C@H](NC(=O)[C@H](C)NC(=O)CNC(=O)[C@H](Cc1ccccc1)NC(=O)[C@H](CC(N)=O)NC(=O)[C@@H]1CCCN1C(=O)[C@H](CO)NC(=O)[C@H](CO)NC(=O)[C@H](Cc1c[nH]cn1)NC(=O)[C@H](CCCNC(=N)N)NC(=O)[C@H](CC(C)C)NC(=O)[C@H](Cc1ccccc1)NC(=O)[C@H](CCC(=O)O)NC(=O)[C@H](C)NC(=O)[C@H](CC(C)C)NC(=O)[C@H](CCCNC(=N)N)NC(=O)[C@H](CCC(N)=O)NC(=O)[C@@H](NC(=O)[C@H](C)NC(=O)[C@@H]1CSSC[C@H](NC(=O)[C@@H](N)CCCCNC(=O)CC[C@H](NC(=O)CC[C@H](NC(=O)CCCCCCCCCCCCCCCCCCC(=O)O)C(=O)O)C(=O)O)C(=O)N[C@@H](CC(N)=O)C(=O)N[C@@H]([C@@H](C)O)C(=O)N[C@@H](C)C(=O)N[C@@H]([C@@H](C)O)C(=O)N1)[C@@H](C)O)C(=O)N1CCC[C@H]1C(=O)N[C@@H](CO)C(=O)N[C@@H](CO)C(=O)N[C@H](C(=O)N[C@@H](CC(N)=O)C(=O)N[C@H](C(=O)NCC(=O)N[C@@H](CCCNC(=N)N)C(=O)N[C@@H](CC(N)=O)C(=O)N[C@H](C(=O)N[C@@H](Cc1ccc(O)cc1)C(N)=O)[C@@H](C)O)C(C)C)[C@@H](C)O
notes: Analogue of human amylin; also called compound 88

IC50 [1]: 94.5 nM
IC50 [2]: 2.07 nM
Ratio rCT/rAmylin binding [3]: 45.6
Ratio hCT/hAmylin binding [4]: 35.6
B2: N^ε1-[(4S)-4-carboxy-4-[[(4S)-4-carboxy-4-(19-carboxynonadecanoylamino)butanoyl]amino]butanoyl]-[Glu14,Arg17,Pro21,Pro27,His34]-h-amylin (peptide)
peptide: K([γGlu-γGlu-C20 diacid])CNTATCATQRLAEFLRHSSPNFGAIPSSTNVGHNTY-NH2
modifications: disulfide 2-7; N-terminus assumed
SMILES: CC[C@H](C)[C@H](NC(=O)[C@H](C)NC(=O)CNC(=O)[C@H](Cc1ccccc1)NC(=O)[C@H](CC(N)=O)NC(=O)[C@@H]1CCCN1C(=O)[C@H](CO)NC(=O)[C@H](CO)NC(=O)[C@H](Cc1c[nH]cn1)NC(=O)[C@H](CCCNC(=N)N)NC(=O)[C@H](CC(C)C)NC(=O)[C@H](Cc1ccccc1)NC(=O)[C@H](CCC(=O)O)NC(=O)[C@H](C)NC(=O)[C@H](CC(C)C)NC(=O)[C@H](CCCNC(=N)N)NC(=O)[C@H](CCC(N)=O)NC(=O)[C@@H](NC(=O)[C@H](C)NC(=O)[C@@H]1CSSC[C@H](NC(=O)[C@@H](N)CCCCNC(=O)CC[C@H](NC(=O)CC[C@H](NC(=O)CCCCCCCCCCCCCCCCCCC(=O)O)C(=O)O)C(=O)O)C(=O)N[C@@H](CC(N)=O)C(=O)N[C@@H]([C@@H](C)O)C(=O)N[C@@H](C)C(=O)N[C@@H]([C@@H](C)O)C(=O)N1)[C@@H](C)O)C(=O)N1CCC[C@H]1C(=O)N[C@@H](CO)C(=O)N[C@@H](CO)C(=O)N[C@H](C(=O)N[C@@H](CC(N)=O)C(=O)N[C@H](C(=O)NCC(=O)N[C@@H](Cc1c[nH]cn1)C(=O)N[C@@H](CC(N)=O)C(=O)N[C@H](C(=O)N[C@@H](Cc1ccc(O)cc1)C(N)=O)[C@@H](C)O)C(C)C)[C@@H](C)O
notes: Analogue of human amylin; also called compound 87

IC50 [1]: 115 nM
IC50 [2]: 2.37 nM
Ratio rCT/rAmylin binding [3]: 48.8
Ratio hCT/hAmylin binding [4]: 28
B3: N^ε1-[(4S)-4-carboxy-4-[[(4S)-4-carboxy-4-(19-carboxynonadecanoylamino)butanoyl]amino]butanoyl]-[Glu14,Arg17,Pro21,Pro27,Arg35]-h-amylin (peptide)
peptide: K([γGlu-γGlu-C20 diacid])CNTATCATQRLAEFLRHSSPNFGAIPSSTNVGSRTY-NH2
modifications: disulfide 2-7; N-terminus assumed
SMILES: CC[C@H](C)[C@H](NC(=O)[C@H](C)NC(=O)CNC(=O)[C@H](Cc1ccccc1)NC(=O)[C@H](CC(N)=O)NC(=O)[C@@H]1CCCN1C(=O)[C@H](CO)NC(=O)[C@H](CO)NC(=O)[C@H](Cc1c[nH]cn1)NC(=O)[C@H](CCCNC(=N)N)NC(=O)[C@H](CC(C)C)NC(=O)[C@H](Cc1ccccc1)NC(=O)[C@H](CCC(=O)O)NC(=O)[C@H](C)NC(=O)[C@H](CC(C)C)NC(=O)[C@H](CCCNC(=N)N)NC(=O)[C@H](CCC(N)=O)NC(=O)[C@@H](NC(=O)[C@H](C)NC(=O)[C@@H]1CSSC[C@H](NC(=O)[C@@H](N)CCCCNC(=O)CC[C@H](NC(=O)CC[C@H](NC(=O)CCCCCCCCCCCCCCCCCCC(=O)O)C(=O)O)C(=O)O)C(=O)N[C@@H](CC(N)=O)C(=O)N[C@@H]([C@@H](C)O)C(=O)N[C@@H](C)C(=O)N[C@@H]([C@@H](C)O)C(=O)N1)[C@@H](C)O)C(=O)N1CCC[C@H]1C(=O)N[C@@H](CO)C(=O)N[C@@H](CO)C(=O)N[C@H](C(=O)N[C@@H](CC(N)=O)C(=O)N[C@H](C(=O)NCC(=O)N[C@@H](CO)C(=O)N[C@@H](CCCNC(=N)N)C(=O)N[C@H](C(=O)N[C@@H](Cc1ccc(O)cc1)C(N)=O)[C@@H](C)O)C(C)C)[C@@H](C)O
notes: Analogue of human amylin; also called compound 89

IC50 [1]: 34.2 nM
IC50 [2]: 0.355 nM
Ratio rCT/rAmylin binding [3]: 96.5
Ratio hCT/hAmylin binding [4]: 60.8
B4: N^ε1-[(4S)-4-carboxy-4-(19-carboxynonadecanoylamino)butanoyl]-[His14,Arg17,Pro21,Pro27]-h-amylin (peptide)
peptide: K([γGlu-C20 diacid])CNTATCATQRLAHFLRHSSPNFGAIPSSTNVGSNTY-NH2
modifications: disulfide 2-7; N-terminus assumed
SMILES: CC[C@H](C)[C@H](NC(=O)[C@H](C)NC(=O)CNC(=O)[C@H](Cc1ccccc1)NC(=O)[C@H](CC(N)=O)NC(=O)[C@@H]1CCCN1C(=O)[C@H](CO)NC(=O)[C@H](CO)NC(=O)[C@H](Cc1c[nH]cn1)NC(=O)[C@H](CCCNC(=N)N)NC(=O)[C@H](CC(C)C)NC(=O)[C@H](Cc1ccccc1)NC(=O)[C@H](Cc1c[nH]cn1)NC(=O)[C@H](C)NC(=O)[C@H](CC(C)C)NC(=O)[C@H](CCCNC(=N)N)NC(=O)[C@H](CCC(N)=O)NC(=O)[C@@H](NC(=O)[C@H](C)NC(=O)[C@@H]1CSSC[C@H](NC(=O)[C@@H](N)CCCCNC(=O)CC[C@H](NC(=O)CCCCCCCCCCCCCCCCCCC(=O)O)C(=O)O)C(=O)N[C@@H](CC(N)=O)C(=O)N[C@@H]([C@@H](C)O)C(=O)N[C@@H](C)C(=O)N[C@@H]([C@@H](C)O)C(=O)N1)[C@@H](C)O)C(=O)N1CCC[C@H]1C(=O)N[C@@H](CO)C(=O)N[C@@H](CO)C(=O)N[C@H](C(=O)N[C@@H](CC(N)=O)C(=O)N[C@H](C(=O)NCC(=O)N[C@@H](CO)C(=O)N[C@@H](CC(N)=O)C(=O)N[C@H](C(=O)N[C@@H](Cc1ccc(O)cc1)C(N)=O)[C@@H](C)O)C(C)C)[C@@H](C)O
notes: Analogue of human amylin; also called compound 70

IC50 [1]: 18.2 nM
IC50 [2]: 0.246 nM
Ratio rCT/rAmylin binding [3]: 74.1
Ratio hCT/hAmylin binding [4]: 42.2
B5: N^ε1-[2-[2-[2-(19-carboxynonadecanoylamino)ethoxy]ethoxy]acetyl]-[His14,Arg17,Pro21,Pro27]-h-amylin (peptide)
peptide: K([AEEA-C20 diacid])CNTATCATQRLAHFLRHSSPNFGAIPSSTNVGSNTY-NH2
modifications: disulfide 2-7; N-terminus assumed
SMILES: CC[C@H](C)[C@H](NC(=O)[C@H](C)NC(=O)CNC(=O)[C@H](Cc1ccccc1)NC(=O)[C@H](CC(N)=O)NC(=O)[C@@H]1CCCN1C(=O)[C@H](CO)NC(=O)[C@H](CO)NC(=O)[C@H](Cc1c[nH]cn1)NC(=O)[C@H](CCCNC(=N)N)NC(=O)[C@H](CC(C)C)NC(=O)[C@H](Cc1ccccc1)NC(=O)[C@H](Cc1c[nH]cn1)NC(=O)[C@H](C)NC(=O)[C@H](CC(C)C)NC(=O)[C@H](CCCNC(=N)N)NC(=O)[C@H](CCC(N)=O)NC(=O)[C@@H](NC(=O)[C@H](C)NC(=O)[C@@H]1CSSC[C@H](NC(=O)[C@@H](N)CCCCNC(=O)COCCOCCNC(=O)CCCCCCCCCCCCCCCCCCC(=O)O)C(=O)N[C@@H](CC(N)=O)C(=O)N[C@@H]([C@@H](C)O)C(=O)N[C@@H](C)C(=O)N[C@@H]([C@@H](C)O)C(=O)N1)[C@@H](C)O)C(=O)N1CCC[C@H]1C(=O)N[C@@H](CO)C(=O)N[C@@H](CO)C(=O)N[C@H](C(=O)N[C@@H](CC(N)=O)C(=O)N[C@H](C(=O)NCC(=O)N[C@@H](CO)C(=O)N[C@@H](CC(N)=O)C(=O)N[C@H](C(=O)N[C@@H](Cc1ccc(O)cc1)C(N)=O)[C@@H](C)O)C(C)C)[C@@H](C)O
notes: Analogue of human amylin; also called compound 90
